For 103 variants, abundance fitness results are on record in the Human Domainome abundance scans (Beltran et al. 2025).

First the molecules themselves.
B1: Syntaxin-binding protein 4, residues 493 to 538; numbered along this chain, Q6ZWJ1 (parent)
chain: LDMDCLPYGWEEAYTADGIKYFINHVTQTTSWIHPVMSVLNLSRSE

± gives the uncertainty stated by the source.

In the series the parent is B1. Nature of the series: abundance fitness (aPCA) (normalised: wild type 0, dead -1); higher = more abundant; growth selection in yeast, the domain comes from the species named. Conditions: Homo sapiens.
Consider R44D, for which the abundance fitness was 0.169 ± 0.12.

Consider R44A, for which the abundance fitness was -0.134 ± 0.098. The result for R44G reads 0.377 ± 0.077; that for R44I, -1.3 ± 0.33; that for R44P, 0.041 ± 0.12. The result for R44H reads -0.287 ± 0.15; that for R44M, -0.292 ± 0.15. The result for R44N reads -0.104 ± 0.14. Take R44Y: the abundance fitness is -0.109 ± 0.14. The result for R44T reads -0.285 ± 0.13; that for R44V, -0.147 ± 0.085. The result for R44S reads 0.096 ± 0.087; that for R44F, -0.881 ± 0.18; that for R44E, 0.376 ± 0.11. The result for R44C reads 0.016 ± 0.11.

On to R44K, for which the abundance fitness was -0.162 ± 0.14. The result for R44L reads -0.512 ± 0.11. The result for R44W reads -0.527 ± 0.15. The result for R44Q reads -0.063 ± 0.13. As to V39R, the abundance fitness is -0.083 ± 0.086.

Take V39D: the abundance fitness turned out to be 0.466 ± 0.11. The result for V39M reads -0.174 ± 0.12; that for V39S, -0.079 ± 0.093; that for V39N, 0.168 ± 0.18. Consider V39A, for which the abundance fitness was -0.135 ± 0.095. With V39C, the abundance fitness was -0.134 ± 0.16.

Take V39T: the abundance fitness came out at 0.04 ± 0.11.

As for V39I, the abundance fitness is -0.599 ± 0.15. Consider V39K, for which the abundance fitness was -0.205 ± 0.12. The result for V39Q reads 0.223 ± 0.12. The result for V39G reads 0.352 ± 0.086; that for V39H, -0.263 ± 0.18; that for V39Y, -0.851 ± 0.26.

On to V39F, for which the abundance fitness stood at 0.072 ± 0.15. The result for V39E reads 0.144 ± 0.098; that for V39W, -0.55 ± 0.13; that for V39L, -0.386 ± 0.097. The result for V39P reads 1.03 ± 0.11; that for M37K, 0.38 ± 0.11; that for M37T, 0.146 ± 0.11. The result for M37V reads -0.226 ± 0.1. As for M37P, the abundance fitness was -0.603 ± 0.14. The result for M37S reads 0.28 ± 0.09; that for M37N, 0.404 ± 0.21; that for M37Y, -0.374 ± 0.2. The result for M37Q reads 0.397 ± 0.12; that for M37R, 0.558 ± 0.079. The result for M37L reads -0.085 ± 0.092; that for E46V, -0.365 ± 0.19; that for E46C, 0.486 ± 0.49. Regarding E46T, the abundance fitness was -0.143 ± 0.24. Turning to E46A, the abundance fitness was -0.517 ± 0.18.

On to E46D, for which the abundance fitness is -0.243 ± 0.13.

For E46S, the abundance fitness was -0.582 ± 0.49. The result for E46L reads -0.668 ± 0.37; that for E46N, -0.139 ± 0.31; that for E46R, -0.132 ± 0.2. The result for E46K reads -0.478 ± 0.4; that for E46G, 0.23 ± 0.12. The result for E46F reads -0.308 ± 0.3. E46Q: the abundance fitness was determined as 0.008 ± 0.5. The result for S43K reads -0.846 ± 0.23; that for S43W, -1 ± 0.16. For S43A, the abundance fitness was -0.526 ± 0.11. The result for S43M reads -0.75 ± 0.17; that for S43D, 0.129 ± 0.12. The result for S43Y reads -0.876 ± 0.24.

For S43N, the abundance fitness stood at 0.116 ± 0.16. The result for S43I reads -0.606 ± 0.16; that for S43E, 0.119 ± 0.11; that for S43T, -0.183 ± 0.14. The result for S43F reads -0.531 ± 0.12. The result for S43L reads -0.698 ± 0.14.

As to S43Q, the abundance fitness is -0.732 ± 0.26.

For S43R, the abundance fitness is -0.17 ± 0.094. The result for S43H reads -0.021 ± 0.25. The result for S43P reads -0.064 ± 0.12; that for S43V, -0.44 ± 0.11; that for S43C, -0.518 ± 0.13. The result for S45A reads -0.186 ± 0.11. On to S45D, for which the abundance fitness was -0.06 ± 0.14. The result for S45L reads -0.509 ± 0.11. The result for S45W reads -0.914 ± 0.22. The result for S45V reads -0.103 ± 0.11; that for S45T, -0.089 ± 0.11; that for S45R, -0.173 ± 0.11. For S45K, the abundance fitness is -0.169 ± 0.18. The result for S45M reads -0.986 ± 0.29. The result for S45P reads -0.127 ± 0.15; that for S45Y, -0.287 ± 0.13. The result for S45H reads -0.438 ± 0.16; that for S45Q, -0.32 ± 0.2.

Consider S45E, for which the abundance fitness was 0.092 ± 0.18. The result for S45F reads -0.759 ± 0.18; that for N41G, -0.215 ± 0.083; that for N41W, -0.197 ± 0.093.

With N41A, the abundance fitness was -0.313 ± 0.087. The result for N41K reads -0.635 ± 0.15.

As for N41V, the abundance fitness was -0.694 ± 0.098. The result for N41T reads -0.23 ± 0.12; that for N41E, -0.227 ± 0.1. The result for N41R reads -0.493 ± 0.096; that for N41F, -1.02 ± 0.2.
